In the DeepSol protein solubility set:

Test: soluble on expression in E. coli; label from the status in PepcDB or PDB records
With “MNYAEICIIKRDGKREDFSISKIKNAVSKAFSATGINDEQQLIADITMNVIGQFASPTITVEEIQDLVEKELMKVRPEVAKKYIIYREWRNTERDKKTQMKHVMDGIVAIDKNDVNLSNANMSSHTPAGQMMTFASEVTKDYTYKYLLPKRFAEAHQLGDIHIHDLDYYPTKTTTCIQYDMDDLFERGFRTKNGSIRTPQSIQSYATLATIIFQTNQNEQHGGQAIPAFDFFMAKGVSKSFRKHLASFISFYVQMNKGEEIEEKAIRTVIAEHLSSIKASELERETLRMALTALQINIDKEHLNQIIEKAFVQTQKDTHQAMEGFIHNLNTMHSRGGNQVVFSSINYGTDTSAEGRMVIEELLKATVEGLGTRGEVPVFPIQIFKIKNGVSYTEADYEKAMANFDAAMEGKLKFEAPNFDLFLKACHTTAKALFPNFMFLDAPFNQNEKWDANDPQRYRYELATMGCRTRVFENVAGEKSSLGRGNLSFTTLNMPRLAIEARIKAENMTEDGHNKDAVERKAKEIFIESIHETATLIAEQLYERYQYQRTALARQFPFMMGNDVWKGGAALNPNEQVGDVLRSGTLGIGFLGGHNAMVALYGEGHGHSQKAWDTLYEAVLEINKVADEYKAKYNLNYSVLATPAEGLSGRFTRMDRRKYGKIKGVTDNDYYVNSFHVDVKEPISIVEKIKREAPFHAITRGGHITYVELDGEAQKNVRAIAKIVKVMFDEGIGYGSINHPVDTCHNCGYKGVIYDKCPVCQSENILRMRRITGYLTGDLSSWNSAKRAEEKDRVKHG” the “soluble on expression in E. coli” value was “not soluble”.
With “MGSDKIHHHHHHMERKTVLVIADLGGCPPHMFYKSAAEKYNLVSFIPRPFAITASHAALIEKYSVAVIKDKDYFKSLADFEHPDSIYWAHEDHNKPEEEVVEQIVKVAEMFGADAITTNNELFIAPMAKACERLGLRGAGVQAAENARDKNKMRDAFNKAGVKSIKNKRVTTLEDFRAALEEIGTPLILKPTYLASSIGVTLITDTETAEDEFNRVNDYLKSINVPKAVTFEAPFIAEEFLQGEYGDWYQTEGYSDYISIEGIMADGEYFPIAIHDKTPQIGFTETSHITPSILDEEAKKKIVEAAKKANEGLGLQNCATHTEIKLMKNREPGLIESAARFAGWNMIPNIKKVFGLDMAQLLLDVLCFGKDADLPDGLLDQEPYYVADCHLYPQHFKQNGQIPETAEDLVIEAIDIPDGLLKGDTEIVSFSAATPGTSVDLTLFEAFNSIAAFELKGSNSQDVAESIRQIQQHAKLTAKYVLPV” the “soluble on expression in E. coli” value was “not soluble”.
With “MGSHHHHHHDITSLYKKAGSAAAVLEENLYFQGSFTMLHEIPKSEILKELKRIGAKRVLIQSPEGLRREAEELAGFLEENNIEVFLHGEINYGACDPADREAKLVGCDALIHLGHSYMKLPLEVPTIFVPAFARVSVVEALKENIGEIKKLGRKIIVTTTAQHIHQLKEAKEFLESEGFEVSIGRGDSRISWPGQVLGCNYSVAKVRGEGILFIGSGIFHPLGLAVATRKKVLAIDPYTKAFSWIDPERFIRKRWAQIAKAMDAKKFGVIVSIKKGQLRLAEAKRIVKLLKKHGREARLIVMNDVNYHKLEGFPFEAYVVVACPRVPLDDYGAWRKPVLTPKEVEILLGLREEYEFDEILGGPRESDEPFGISIHSTR” the “soluble on expression in E. coli” value was “soluble”.
In the case of “SARIILERFLQGHEQTPPSKSVINSMLRDPSQIPDGVLANQVYQCIVNDCCYGPLVDCIKHAIGYEHEVLLRDLLLKKNLSFLDEDQLRAKGYDKTPDFILQVPVAVEGHIIHWIESKASFGDECSHHAYLHGQFWSYWNRFGPGLVIYWYGFIQELDCNRERGILLKASFPTDIVTLCHSTA”, the “soluble on expression in E. coli” value is reported as “soluble”.
In the case of “MTTQAPTFTQPLQSVVVLEGSTATFEAHISGFPVPEVSWFRDGQVISTSTLPGVQISFSDGRAKLTIPAVTKANSGRYSLKATNGSGQATSTAELLVKAETAPPNFVQRLQSMTVRQGSQVRLQVRVTGIPTPVVKFYRDGAEIQSSLDFQISQEGDLYSLLIAEAYPEDSGTYSVNATNSVGRATSTAELLVQGETREEF”, the “soluble on expression in E. coli” value is reported as “soluble”.
For “MGSDKIHHHHHHMKIYCSKDSLITGVNTVQKAVSNKNTLPVLQGIMIRAEGQSLIFEATDLEIGIRCVVPAQVEKEGVVVLPSRLFSDLVCKLPDVLIELELQNDVINIHYNESDLSLRGYDPEEFPLLPDLFDAETFNLPVSIFKTMIKQTIFACSAEESRPVFTGCLLQIEDGSLRLIATDTHRLAYRIAEISNPEQIKFQGIIPAKTLGEIYRLLRDEDENLFIRFNQAQIVFQFGAVHLLSRLIEGQFPNYKQVIPQSCQTKVLLSARLFQDSVERASLLARDGSHTSIIKLSVDTERLSIDQTSELGKISEQMEVKKEGNDVKIAFNSKFLLDVLKIIDSEEIVFELSGSYSPGIIRPVDDPNYLYLALPVRTS”, the “soluble on expression in E. coli” value was “not soluble”.
For “MNEVKLSKRLEEVVREIPVGSTVADIGSDHAYLPCYTIINNIATKAVAGEVVDGPFRSAQATVAESGLQDKVDVRKGNGLAVIAPGEVDVITVAGMGGALIRDILESGKEKLEGVTRLILQPNIAAHHIREWFIENGWELIHEKIVKEDGKIYEILVGERGNVAAPYSENKQAELFMGPFLITEKSEAFVEKWEGELKNFQNILKQLERAADSEETKAKRGEVEAKMKMIGEVLS”, the “soluble on expression in E. coli” value was “not soluble”.
With “MGHHHHHHSHMAQSINITELNLPQLEMLKNQLDQEVEFLSTSIAQLKVVQTKYVEAKDCLNVLNKSNEGKELLVPLTSSMYVPGKLHDVEHVLIDVGTGYYVEKTAEDAKDFFKRKIDFLTKQMEKIQPALQEKHAMKQAVMEMMSQKIQQLTALGAAQATAKA” the “soluble on expression in E. coli” value was “not soluble”.
With “MEQDNSPQKIQFTVPLLEPHLDPEAAEQIRRRRPTPATLVLTSDQSSPEIDEDRIPNPHLKSTLAMSPRQRKKMTRITPTMKELQMMVEHHLGQQQQGEEPEGAAESTGTQESRPPGIPDTEVESRLGTSGTAKKTAECIPKTHERGSKEPSTKEPSTHIPPLDSKGANSV” the “soluble on expression in E. coli” value was “soluble”.
In the case of “MNDFYVTLPSSVKNAQFENTSSRYVTRLPQVLHLEKDEYSVAVTDIIYPYSFVNLGRPLNYWIHFKNREPINVTFPAAQYDDLPHVVNSLNGVQKPRMKRGAPLILENEQVKRPKSDEPLSERDVIINKIRELEAKAKKDEEERIAREKEEKNKQREKHLATHKKAEEFAKKVQTDKDEQREKHLDTHKKAEQNAQDNQKYHDEERKKHIETQKKAEENEEKRRAKEKADRDAHVARHKQAEALEKKKREQEEKQKNEDRERATQKERREHIERHRQAEARAKALEKEKHEQEEKQKKENLERAEKERHDHIERQRQAEARAKALEQEKQEEKQKNEDRERATQKERREHLERHRQAEARAKALEKEKHERLQQEAKDKEDERARDKARKDAKAREEAKSREDVKAEKVAIDPKQVVNIPGKVYASQEAKKIIEKVNELEKQERDKIVSKVRESEAIEKEAVRASSEYHDVALKIFQKPNDRNIYDELKLSFERIRSRIKVSHFENSSDYLQFGEKDGRVSIDFLDSNILFEEFEKSCAYFLGFHDTIVRESSLAPSKIDYFGNVSTIYLYCDIVDPIIVGDSKNSLLSVIPCKGKYGEMIHHTIPHPRYLPIMNSTIDSIKIELLSEFAEPINFNWGSTVIVLHFKKI”, the “soluble on expression in E. coli” value is reported as “not soluble”.
With “MHTILILGAGPAGAAVALGLRRLGYPVTLVSDWRRFPALEGVSLRVLEALRGAGLEQALAQALQPSQRRVAWNGAEHAQNIEYLLDRPAFDRGLREALREAQVKLIEGRVLGVQSSEAGHRVQVQGQGEVRGEFLVEARGRQAPVLDKALRQGGGKGLRGPETVSLLNRWQGPGGSATSAVHSLEDGWAWMARREDGQCYWQLTLDVESAGLPGKAQLLEYCRQRRLGSAMAREFFAGGQEQQLHLHARSSTAILNPQACGANWLRVGDAAMAVDPLSGNGIFQSLSSALQAPAVINTLLQQPQRAALAQRFHGQRVEQLFLRFARIGRDFYADEQRWPEQPFWQARRQWPDCQPAHIAVDFSALRIERAPVLRDGLVDEAEVVITPDQPLGIWHVQGVELAPLLRRLRSQGAAQALAQLSPDQNRLIRSWLLAQGYRPLEHHHHHH” the “soluble on expression in E. coli” value was “not soluble”.
With “MDHLKHLQQLQNIERIVLSGIVLANHKIEEVHSVLEPSDFYYPPNGLFFEIALKLHEEDCPIDENFIRQKMPKDKQIKEEDLVAIFAASPIDNIEAYVEEIKNASIKRKLFGLANTIREQAHH” the “soluble on expression in E. coli” value was “soluble”.
For “MQQTTQIQPSFTLKTREGGVASADERADEVVIGVGPAFDKHQHHTLIDMPHGAILKELIAGVEEEGLHARVVRILRTSDVSFMAWDAANLSGSGIGIGIQSKGTTVIHQRDLLPLSNLELFSQAPLLTLETYRQIGKNAARYARKESPSPVPVVNDQMVRPKFMAKAALFHIKETKHVVQDAEPVTLHIDLVRE”, the “soluble on expression in E. coli” value was “soluble”.
For “MGSDKIHHHHHHDSKQSQDLIVKTAQAVSASGIKTTEFPFIAQPFRTSELSFRVGGPIDRLDVYAGNHYKQGSIIAEIDPRDFHIRKERAEAIYHQAKAEFERIEKLYEKNNVSASTYEKTKADYTTAKTAFDTASNELGDTRLTAPFDGYVGEVYIEKYQDVKPAQPVISFIDINRLKIEIYVTQNIAFASHPTDSVRIYFDAQPDKYYKAQIVEVSKGTTRNNLSYLLTAVLPNKEGKLLAGMSGKAIFDAPGTTDLTGVSIPQTALCYRPSEGEYVWVIDTNTRQVNRRTVKKGNLLPGGYVTITEGLRASETVATSGLRFLSDGMKVEISTKTNSL”, the “soluble on expression in E. coli” value was “not soluble”.
With “MSEWASEDINAPSLLTGNPALQPQTGGILNIPANHQRIFTLFFTCRSQTNGDVVDQYAVEDRQQRLESRLLALKPSAQRNKQMCGECLGGVILTALFDPRSQAM” the “soluble on expression in E. coli” value was “not soluble”.
With “LTLGNTTSSVILTNYMDTQYYGEIGIGTPPQTFKVVFDTGSSNVWVPSSKCSRLYTACVYHKLFDASDSSSYKHNGTELTLRYSTGTVSGFLSQDIITVGGITVTQMFGEVTEMPALPFMLAEFDGVVGMGFIEQAIGRVTPIFDNIISQGVLKEDVFSFYYNRDSENSQSLGGQIVLGGSDPQHYEGNFHYINLIKTGVWQIQMKGVSVGSSTLLCEDGCLALVDTGASYISGSTSSIEKLMEALGAKKRLFDYVVKCNEGPTLPDISFHLGGKEYTLTSADYVFQESYSSKKLCTLAIHAMDIPPPTGPTWALGATFIRKFYTEFDRRNNRIGFALAR” the “soluble on expression in E. coli” value was “soluble”.
In the case of “SLTTSTALVLDINNANLDQQQAFAITAANRDEILQAASSIRLGDVMSVHDFGRSATDASYLDTMLEDVKVIDQKESGKQLNEIAFLSRQISDSVQPSDLQRVISRIPIIGFVISRLTFMQRRALNRFDSVKGQMDILADGISSISTGYLEQNVKLDAMYNDVLADIRAQGINIVASKLVIDSIEGELQTRQEEFKKNKTNTLLSIEINDIQYQLDTLKKRRKDMISMQQKSFDDLTMLRMMQQNNLALVDKFRSVEELTLPAAKRGHLIVDALEKQNAGVKLIEAIDDATNALALRQAELVKDNTIRIAKQSHRSVYDAKTLDRISTLMNEAIAEAHAIHKSNSDGHLALEKRAIEWQEERRQRLINGMGKNKLSNH”, the “soluble on expression in E. coli” value is reported as “not soluble”.
In the case of “MKTPARRSKRVNQEESETNVTTRVVLRTRKTNCSKTRAARVRPDYPLTRTTSESEMKLMPPEFFQIDALDLAPRLLGKFMRRDNVVLRITEVEAYRPNDSACHGRFGVTPRTAPVFGPGGHAYVYLCYGLHMMLNIVADKEGVGAAVLIRSCSPVSGMETIQERRGLKTDKPVLLNGPGKVGQALGLSTEWSHHPLYSPGGLELLDGGEDVEKVMVGPRVGIDYALPEHVNALWRFAVADTPWISAPKNTLKPL”, the “soluble on expression in E. coli” value is reported as “soluble”.
In the case of “MGSDKIHHHHHHMSNVDRAEIAKFEALAHRWWDRESEFKPLHEINPLRVNWIDERVSLAGKKVLDVGCGGGILSEAMALRGATVTGIDMGEAPLAVAQLHQLESGVQVEYRQITAEALAEEMPEQFDVVTCLEMLEHVPDPSSVIRACYRMVKPGGQVFFSTINRNPKAYLLAIVGAEYILKMLPRGTHDFKKFIRPSELGAWSRDAGLQVKDIIGLTYNPLTKHYKLNSDVDVNYMIQTLREE”, the “soluble on expression in E. coli” value is reported as “not soluble”.
